From patent US20250101111A1 (ARGENX, published 2025)

Key:
human FcγRIIIa-158F = biological target: T1, human FcγRIIIa-158F (human, UniProt P08637 17-208, C-terminal biotin); assay: SPR, Fc fragments on captured FcγRs, pH 7.4
T1 construct: Bought, C-terminally biotinylated; captured on a streptavidin sensor; also called hFcγRIIIa-158F
Description: (§1) The sensor surface was regenerated between the cycles by subsequent injections of 20 mM Tris-HCl, 150 mM NaCl pH 8.8 and 20 mM H₃PO₄ pH 2.4. […] Regeneration of the sensor surface between the cycles was performed by injection of 10 mM Gly-HCl pH 2.4. Affinity calculations were carried out by performing an equilibrium analysis interpolating to an Rmax of 200 to 600, depending on the assay, and fitting a 1:1 Langmuir binding model, assuming equilibrium to be reached after 360s of IgG-Fc containing analyte injections. Analysis and calculations were performed using Scrubber Software Version 2 (BioLogic Software), Excel (Microsoft) and Graphpad Prism (Prism).

human FcγRIIIb-NA2 = biological target: T2, human FcγRIIIb-NA2 (human, UniProt O75015 17-200, limits assumed, C-terminal biotin); assay: SPR, Fc fragments on captured FcγRs, pH 7.4
T2 construct: In-house, C-terminally biotinylated; captured on a streptavidin sensor; also called hFcγRIIIb-NA2
Description: as §1

human FcγRIIIb-NA1 = biological target: T3, human FcγRIIIb-NA1 (human, UniProt O75015 17-200, limits assumed, C-terminal biotin); assay: SPR, Fc fragments on captured FcγRs, pH 7.4
T3 construct: In-house, C-terminally biotinylated; captured on a streptavidin sensor; also called hFcγRIIIb-NA1
Description: as §1

human FcγRIIa-131R = biological target: T4, human FcγRIIa-131R (human, UniProt P12318 34-218, C-terminal biotin); assay: SPR, Fc fragments on captured FcγRs, pH 7.4
T4 construct: Bought, C-terminally biotinylated; captured on a streptavidin sensor
T4 sequence (looked up): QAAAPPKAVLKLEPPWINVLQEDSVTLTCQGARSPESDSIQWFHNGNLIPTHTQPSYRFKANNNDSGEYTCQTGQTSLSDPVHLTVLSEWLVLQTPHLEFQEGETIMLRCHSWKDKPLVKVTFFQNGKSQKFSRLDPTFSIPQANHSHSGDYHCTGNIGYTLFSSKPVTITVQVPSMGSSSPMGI
Description: as §1

human FcγRIIIa-158V = biological target: T5, human FcγRIIIa-158V (human, UniProt P08637 17-208, C-terminal biotin); assay: SPR, Fc fragments on captured FcγRs, pH 7.4
T5 construct: Bought, C-terminally biotinylated; captured on a streptavidin sensor; also called hFcγRIIIa-158V
Description: as §1

human FcγRIIa-131H = biological target: T6, human FcγRIIa-131H (human, UniProt P12318 34-218, C-terminal biotin); assay: SPR, Fc fragments on captured FcγRs, pH 7.4
T6 construct: Bought, C-terminally biotinylated; captured on a streptavidin sensor
T6 sequence (looked up): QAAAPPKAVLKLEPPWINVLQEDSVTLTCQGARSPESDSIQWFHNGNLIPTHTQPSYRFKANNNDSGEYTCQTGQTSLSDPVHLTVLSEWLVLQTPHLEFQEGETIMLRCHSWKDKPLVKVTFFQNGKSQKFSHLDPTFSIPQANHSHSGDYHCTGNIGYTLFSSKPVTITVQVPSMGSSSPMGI
Description: as §1

human FcγRIa = biological target: T7, human FcγRIa (human, UniProt P12314 16-288); assay: SPR (IBIS MX96), FcγR captured on sensor, Fc fragment titrated, pH 7.4, equilibrium 1:1 fit
T7 construct: Bought, C-terminally His-tagged; captured on the sensor by biotinylated anti-His mIgG1; also called hFcγRIa; not shown: C-terminal His tag
T7 sequence (P12314 16-288 limits assumed): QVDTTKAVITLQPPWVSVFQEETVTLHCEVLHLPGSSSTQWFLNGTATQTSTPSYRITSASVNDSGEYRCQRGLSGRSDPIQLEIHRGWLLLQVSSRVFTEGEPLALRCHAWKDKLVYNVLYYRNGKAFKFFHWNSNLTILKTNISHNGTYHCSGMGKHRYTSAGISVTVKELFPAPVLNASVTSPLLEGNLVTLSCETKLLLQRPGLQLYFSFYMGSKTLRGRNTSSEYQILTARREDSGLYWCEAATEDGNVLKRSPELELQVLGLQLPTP
Description: as §1

[1] = biological target: T8, human FcRn, endogenous, in THP-1 cells and blood monocytes (human, UniProt P55899 24-365; P61769 21-119); assay: intracellular FcRn occupancy assay, flow cytometry: THP-1 FcγRIIa K.O. cells preloaded with IVIg, free FcRn stained with DL650-labeled anti-FcRn Fab
T8 construct: whole, on cells; Mainly intracellular; measured in intact or permeabilised cells
Description: In short, 1×10⁵ cells were loaded with 5-fold dilution series of IgG variants and fragments thereof for 2 h, ranging from 4 to 500 nM under culture conditions, as specified above. […] 95 μL of this cell solution was then combined with 5 μL of 20× concentrated dilution series of IgG variants and incubated for another 2 h under culture conditions. Thereafter, cells were transferred to 96-well V-bottom plate (Corning) and incubated on ice for 2 min. Cells were subsequently spun down for 3 min at 450×g at 4° C. and the supernatant was discarded. Following the same procedure, cells were washed five times with 150 μL ice-cold medium, followed by one wash with 150 μL 1×PBS supplemented with 1% (v/v) FCS at pH 7.4 and one wash with 150 μL of 1×PBS supplemented with 1% (v/v) FCS at pH 6.0. Cells were then fixed and permeabilized using both solutions of a Fixation/Permeabilization Kit (BD Biosciences) adapted to pH 6.0 after addition of MES (Thermo Fisher Scientific) to a final concentration of 0.5M, otherwise following manufacturer's instructions. […] Cells were washed twice with 150 μL 1×PBS supplemented with 1% (v/v) FCS at pH 6.0, spun down at 450×g at 4° C. for 3 min and the supernatants were discarded. Finally, cells were resuspended in 50 μL of the same buffer, transferred to Micronics tubes (Micronic) on ice and measured in flow cytometry.

- fold reduction in binding compared to Fc-WT (human FcγRIIIa-158F): ≥ 3 fold
- fold reduction in binding compared to Fc-WT (human FcγRIIIb-NA2): ≥ 3 fold
- fold reduction in binding compared to Fc-WT (human FcγRIIIb-NA1): ≥ 3 fold
- fold reduction in binding compared to Fc-WT (human FcγRIIa-131R): ≥ 3 fold
- fold reduction in binding compared to Fc-WT (human FcγRIIIa-158V): ≥ 3 fold
- fold reduction in binding compared to Fc-WT (human FcγRIIa-131H): ≥ 3 fold
- Kd (human FcγRIa): 6.1 nM
- binding result [1]: no binding (tested: 500 nM)
B1: Fc-IHH (other, human, UniProt P01857-1 104-330, looked up)
chain: DKTHTCPPCPAPELLGGPSVFLFPPKPKDTLMASRTPEVTCVVVDVSHEDPEVKFNWYVDGVEVHNAKTKPREEQYNSTYRVVSVLTVLAQDWLNGKEYKCKVSNKALPAPIEKTISKAKGQPREPQVYTLPPSRDELTKNQVSLTCLVKGFYPSDIAVEWESNGQPENNYKTTPPVLDSDGSFFLYSKLTVDKSRWQQGNVFSCSVMHEALHNAYTQKSLSLSPGK
notes: domain: Fc fragment; IHH = I253A H310A H435A (EU numbering); also called IgG1-Fc-IHH
